# Measured values taken from the supplement of paper PMC12338614.
# ± gives the uncertainty stated by the source.
# B1: library; numbered along this chain (parent)
# chain: MEVVDPQQLGMFTEGELMSVGMDTFIHRIDSTEVIYQPRRKRAKLIGKYLMGDLLGEGSYGKVKEVLDSETLCRRAVKILKKKKLRRIPNGEANVKKEIQLLRRLRHKNVIQLVDVLYNEEKQKMYMVMEYCVCGMQEMLDSVPEKRFPVCQAHGYFCQLIDGLEYLHSQGIVHKDIKPGNLLLTTGGTLKISDLGVAEALHPFAADDTCRTSQGSPAFQPPEIANGLDTFSGFKVDIWSAGVTLYNITTGLYPFEGDNIYKLFENIGKGSYAIPGDCGPPLSDLLKGMLEYEPAKRFSIRQIRQHSWFRKKHPPAEAPVPIPPSPDTKDRWRSMTVVPYLEDLHGADEDEDLFDIEDDIIYTQDFTVPGQVPEEEASHNGQRRGLPKAVCMNGTEAAQLSTKSRAEGRAPNPARKACSASSKIRRLSACKQQ
# Variants of: B1
# Assay: STK11 functional score (HeLa growth suppression), rescaled enrichment; synonymous median = 1, nonsense median = 0 (normalised score)
# Details: with HeLa; variant type: missense
# Method in brief: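 HeLa cells carrying an AAVS1 landing pad received codon-optimised STK11 libraries made by codon randomisation (POPCode), integrated by Bxb1, with three regions each transfected three times. Integrants that were BFP-negative and mCherry-positive were sorted by FACS 4–5 days after electroporation and then grown for about two weeks. Tiled amplicons from gDNA were sequenced on NextSeq at ~2 million reads per tile. The functional score is a wild-type-corrected log ratio of post- to pre-selection counts, rescaled to the synonymous and nonsense medians, merged across codons and replicate transfections, and given a bootstrapped error.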
row,Variant,STK11 functional score
1,R304G,1.24 ± 0.36
2,Y362R,1.39 ± 0.15
3,F354Y,1.31 ± 0.15
4,P217L,0.248 ± 0.24
5,H27W,0.807 ± 0.27
6,E357G,1.47 ± 0.23
7,S271C,0.412 ± 0.07
8,A218I,0.926 ± 0.16
9,A389I,1.59 ± 0.24
10,P294A,1.39 ± 0.21
11,Y36N,1.6 ± 0.22
12,V338T,1.6 ± 0.14
13,E256S,1.36 ± 0.4
14,L190I,1.04 ± 0.35
15,F264L,1.1 ± 0.13
16,T209I,0.703 ± 0.26
17,Q302P,-0.0839 ± 0.19
18,K403H,1.53 ± 0.17
19,L85E,1.7 ± 0.4
20,K97A,1.47 ± 0.27
21,D327I,1.6 ± 0.27
22,C418Y,1.6 ± 0.17
23,N109H,-0.0132 ± 0.079
24,S421D,1.62 ± 0.17

row,Variant,STK11 functional score
1,Y292A,1.15 ± 0.26
2,Q214I,1.05 ± 0.27
3,L17H,1.53 ± 0.16
4,C134P,1.62 ± 0.19
5,N90K,-0.0122 ± 0.3
6,G15W,0.148 ± 0.38
7,P315R,1.32 ± 0.17
8,L105M,1.18 ± 0.74
9,K175Q,1.19 ± 0.2
10,V368Y,1.54 ± 0.24
11,E33W,0.795 ± 0.09
12,G408T,1.61 ± 0.15
13,S334A,0.943 ± 0.21
14,G242V,-0.059 ± 0.094
15,Y118K,0.568 ± 0.17
16,P326L,1.34 ± 0.16
17,Q123V,0.961 ± 0.2
18,P275I,1.17 ± 0.49
19,K124A,1.13 ± 0.59
20,E120N,1.68 ± 0.39
21,G268T,1.52 ± 0.16
22,S213Y,1.34 ± 0.28
23,K423S,1.56 ± 0.13
24,V95F,0.945 ± 0.26

row,Variant,STK11 functional score
1,A414E,1.54 ± 0.14
2,S401D,1.19 ± 0.36
3,V116C,0.415 ± 0.14
4,G58V,-0.308 ± 0.081
5,D176L,-0.164 ± 0.061
6,D208M,1.7 ± 0.38
7,V66E,0.0829 ± 0.36
8,K62I,1.35 ± 0.52
9,P324W,0.731 ± 0.099
10,P38Y,0.0651 ± 0.12
11,K83N,1.3 ± 0.39
12,L285W,-0.0646 ± 0.056
13,R28L,0.637 ± 0.15
14,E120V,1.09 ± 0.086
15,A417C,1.24 ± 0.52
16,S334R,0.671 ± 0.28
17,S428L,0.874 ± 0.14
18,E65I,0.756 ± 0.38
19,D352H,1.27 ± 0.41
20,A316S,0.768 ± 0.23
21,R40I,1.63 ± 0.21
22,A205S,1.18 ± 0.34
23,I35R,1.61 ± 0.21
24,S283A,1.24 ± 0.14

row,Variant,STK11 functional score
1,Q220T,1.67 ± 0.23
2,K97V,0.998 ± 0.2
3,G288M,1.23 ± 0.13
4,A218F,1.26 ± 0.17
5,S422T,0.705 ± 0.26
6,S232N,1.28 ± 0.44
7,D350S,0.53 ± 0.49
8,P89L,0.532 ± 0.24
9,M289L,0.831 ± 0.11
10,E291L,0.796 ± 0.14
11,K311A,1.61 ± 0.15
12,V236L,0.273 ± 0.21
13,M22F,1 ± 0.23
14,G381F,1.13 ± 0.42
15,Q159R,1.03 ± 0.33
16,E351V,1.36 ± 0.18
17,T186R,1.11 ± 0.36
18,Y156P,0.418 ± 0.19
19,K269T,1.47 ± 0.2
20,A414V,1.48 ± 0.14
21,Q433H,1.2 ± 0.34
22,L195W,0.87 ± 0.12
23,P323S,1.3 ± 0.5
24,Y118L,0.633 ± 0.1

row,Variant,STK11 functional score
1,V110Y,0.623 ± 0.43
2,R39L,1.45 ± 0.17
3,L80I,0.964 ± 0.13
4,I248V,0.854 ± 0.17
5,L344F,0.831 ± 0.38
6,S216Y,-0.11 ± 0.12
7,P280K,1.67 ± 0.19
8,L341W,1.25 ± 0.43
9,I224E,1.03 ± 0.86
10,E317D,1.57 ± 0.34
11,L182F,1.03 ± 0.16
12,I88L,1.24 ± 0.26
13,P89D,0.0497 ± 0.083
14,M125L,1 ± 0.14
15,D284M,1.19 ± 0.42
16,Q170T,0.156 ± 0.35
17,S299T,1.55 ± 0.16
18,G408H,1.63 ± 0.17
19,S283I,0.942 ± 0.12
20,T186V,1.24 ± 0.38
21,D358N,0.776 ± 0.53
22,S240M,0.927 ± 0.66
23,V110H,0.958 ± 0.11
24,S271Y,-0.251 ± 0.55

row,Variant,STK11 functional score
1,L263A,0.39 ± 0.12
2,G56L,0.359 ± 0.094
3,K235Q,1.58 ± 0.35
4,A377L,1.04 ± 0.16
5,A389L,1.54 ± 0.16
6,T212L,1.06 ± 0.33
7,S193M,0.111 ± 0.094
8,P179T,0.709 ± 0.13
9,I356L,1.15 ± 0.38
10,E375T,0.94 ± 0.28
11,K416W,0.693 ± 0.27
12,A389W,1.04 ± 0.2
13,E396N,1.49 ± 0.1
14,R415T,0.914 ± 0.57
15,N247K,0.794 ± 0.19
16,V77I,1.4 ± 0.13
17,V236F,1.21 ± 0.17
18,M392V,1.51 ± 0.23
19,D53P,1.52 ± 0.36
20,R333I,1.49 ± 0.23
21,Y292F,0.991 ± 0.22
22,G52S,1.53 ± 0.27
23,V77W,0.824 ± 0.077
24,A429T,0.896 ± 0.4

row,Variant,STK11 functional score
1,L427N,1.63 ± 0.25
2,I238M,0.843 ± 0.17
3,P38N,0.557 ± 0.099
4,E351M,0.992 ± 0.19
5,K78L,0.107 ± 0.12
6,K41D,1.39 ± 0.18
7,D343W,1.55 ± 0.14
8,R211M,1.42 ± 0.11
9,G385D,1.3 ± 0.37
10,I79C,0.264 ± 0.28
11,S325G,0.96 ± 0.28
12,D277F,1.35 ± 0.39
13,G233A,1.3 ± 0.6
14,G288S,0.938 ± 0.2
15,A295C,1.31 ± 0.43
16,W239I,-0.18 ± 0.095
17,L285P,-0.13 ± 0.21
18,A200W,0.861 ± 0.091
19,T336I,1.35 ± 0.33
20,Y118I,1.32 ± 0.12
21,G91F,0.906 ± 0.23
22,D359A,1.4 ± 0.15
23,L9R,1.12 ± 0.2
